From patent publication US20230340114A1 (IMMUNE ONC THERAPEUTICS, published 2023)
Residue numbers refer to the chain shown, from its start.

B1: 4ab4ab-3 (bispecific antibody, human IgG1, kappa, L234A L235A)
heavy 1: not shown
heavy 2: EVQLVESGGGLVQPGGSLRLSCAASGFSLSSSYWISWVRQAPGKGLEWIGSIDSGSVGITYYATWVKGRFTISRDNSKNTLYLQMNSLRAEDTAVYYCARHGDNWALDLWGQGTLVTVLEDLKNVFPPEVAVFEPSEAEISHTQKATLVCLATGFYPDHVELSWWVNGKEVHSGVCTDPQPLKEQPALQDSRYALSSRLRVSATFWQNPRNHFRCQVQFYGLSENDEWTQDRAKPVTQIVSAEAWGRGGGGSGGGGSEVQLVESGGGLVQPGGSLRLSCAASGFSLSSSYWISWVRQAPGKGLEWIGSIDSGSVGITYYATWVKGRFTISRDNSKNTLYLQMNSLRAEDTAVYYCARHGDNWALDLWGQGTLVTVLEDLKNVFPPEVAVFEPSEAEISHTQKATLVCLATGFYPDHVELSWWVNGKEVHSGVCTDPQPLKEQPALQDSRYALSSRLRVSATFWQNPRNHFRCQVQFYGLSENDEWTQDRAKPVTQIVSAEAWGRASDKTHTCPPCPAPELLGGPSVFLFPPKPKDTLMISRTPEVTCVVVDVSHEDPEVKFNWYVDGVEVHNAKTKPREEQYNSTYRVVSVLTVLHQDWLNGKEYKCKVSNKALPAPIEKTISKAKGQPREPQVCTLPPSREEMTKNQVSLSCAVKGFYPSDIAVEWESNGQPENNYKTTPPVLDSDGSFFLVSKLTVDKSRWQQGNVFSCSVMHEALHNHYTQKSLSLSPG
light 1: not shown
light 2: DIQMTQSPSTLSASVGDRVTITCRASQSISSWLAWYQQKPGKAPKLLIYKASTLASGVPSRFSGSGSGTEFTLTISSLQPDDFATYYCQHGYIRGDLDNVFGGGTKVEIKPDIQNPDPAVYQLRDSKSSDKSVCLFTDFDSQTQVSQSKDSDVYITDKCVLDMRSMDFKSNSAVAWSQKSDFACANAFQNSIIPEDTFFPSPESS
notes: also called first-generation LILRB4/CD3 bispecific antibody No. 4
B2: H7K3 variant 5, K3m1 (N/V) (antibody, V domains shown)
VH: EVQLVESGGGLVQPGGSLRLSCAASGFSLSSSYWISWVRQAPGKGLEWIGSIDSGSVGITYYATWVKGRFTISRDNSKNTLYLQMNSLRAEDTAVYYCARHGDNWALDLWGQGTLVTVSS
VL: DIQMTQSPSTLSASVGDRVTITCRASQSIVSWLAWYQQKPGKAPKLLIYKASTLASGVPSRFSGSGSGTEFTLTISSLQPDDFATYYCQHGYIRGDLDNVFGGGTKVEIK
B3: H7K3 variant 12, K3m8 (S/V) (antibody, V domains shown)
VH: B2 VH
VL: B2 VL with V30N, S31V
B4: H7K3 variant 11, K3m7 (S/Q) (antibody, V domains shown)
VH: B2 VH
VL: B2 VL with V30N, S31Q
B5: H7K3 variant 8, K3m4 (N/Q) (antibody, V domains shown)
VH: B2 VH
VL: B2 VL with V30Q
B6: 44-3ab (bispecific antibody, human IgG1, kappa, L234A L235A)
heavy 1: not shown
heavy 2: EVQLVESGGGLVQPGGSLRLSCAASGFSLSSSYWISWVRQAPGKGLEWIGSIDSGSVGITYYATWVKGRFTISRDNSKNTLYLQMNSLRAEDTAVYYCARHGDNWALDLWGQGTLVTVSSASTKGPSVFPLAPSSKSTSGGTAALGCLVKDYFPEPVTVSWNSGALTSGVHTFPAVLQSSGLYSLSSVVTVPSSSLGTQTYICNVNHKPSNTKVDKRVEPKSCGGGGSGGGGSEVQLVESGGGLVQPGGSLRLSCAASGFSLSSSYWISWVRQAPGKGLEWIGSIDSGSVGITYYATWVKGRFTISRDNSKNTLYLQMNSLRAEDTAVYYCARHGDNWALDLWGQGTLVTVSSASTKGPSVFPLAPSSKSTSGGTAALGCLVKDYFPEPVTVSWNSGALTSGVHTFPAVLQSSGLYSLSSVVTVPSSSLGTQTYICNVNHKPSNTKVDKRVEPKSCDKTHTCPPCPAPEAAGGPSVFLFPPKPKDTLMISRTPEVTCVVVDVSHEDPEVKFNWYVDGVEVHNAKTKPREEQYNSTYRVVSVLTVLHQDWLNGKEYKCKVSNKALPAPIEKTISKAKGQPREPQVCTLPPSREEMTKNQVSLSCAVKGFYPSDIAVEWESNGQPENNYKTTPPVLDSDGSFFLVSKLTVDKSRWQQGNVFSCSVMHEALHNHYTQKSLSLSPG
light 1: DIVMTQSPDSLAVSLGERATINCKSSQSLLNSRTRKNYLAWYQQKPGQPPKLLIYWASTRQSGVPDRFSGSGSGTDFTLTISSLQAEDVAVYYCTQSHTLRTFGGGTKVEIKPDIQNPDPAVYQLRDSKSSDKSVCLFTDFDSQTQVSQSKDSDVYITDKCVLDMRSMDFKSNSAVAWSQKSDFACANAFQNSIIPEDTFFPSPESS
light 2: DIQMTQSPSTLSASVGDRVTITCRASQSISSWLAWYQQKPGKAPKLLIYKASTLASGVPSRFSGSGSGTEFTLTISSLQPDDFATYYCQHGYIRGDLDNVFGGGTKVEIKRTVAAPSVFIFPPSDEQLKSGTASVVCLLNNFYPREAKVQWKVDNALQSGNSQESVTEQDSKDSTYSLSSTLTLSKADYEKHKVYACEVTHQGLSSPVTKSFNRGEC
notes: also called first-generation LILRB4/CD3 bispecific antibody No. 3
B7: 43ab-4 (bispecific antibody, human IgG1, kappa, L234A L235A)
heavy 1: not shown
heavy 2: EVQLVESGGGLVQPGGSLRLSCAASGFSLSSSYWISWVRQAPGKGLEWIGSIDSGSVGITYYATWVKGRFTISRDNSKNTLYLQMNSLRAEDTAVYYCARHGDNWALDLWGQGTLVTVSSASTKGPSVFPLAPSSKSTSGGTAALGCLVKDYFPEPVTVSWNSGALTSGVHTFPAVLQSSGLYSLSSVVTVPSSSLGTQTYICNVNHKPSNTKVDKRVEPKSCDKTHTCPPCPAPEAAGGPSVFLFPPKPKDTLMISRTPEVTCVVVDVSHEDPEVKFNWYVDGVEVHNAKTKPREEQYNSTYRVVSVLTVLHQDWLNGKEYKCKVSNKALPAPIEKTISKAKGQPREPQVCTLPPSREEMTKNQVSLSCAVKGFYPSDIAVEWESNGQPENNYKTTPPVLDSDGSFFLVSKLTVDKSRWQQGNVFSCSVMHEALHNHYTQKSLSLSPG
light 1: B6 light 1
light 2: B6 light 2
notes: also called first-generation LILRB4/CD3 bispecific antibody No. 5

Assays:
[1] = biological target: T1, human LILRB4 expressed on cells (human, UniProt Q8NHJ6 22-448); test: cell-based or functional assay
[2] = biological target: recombinant CD3e-CD3d heterodimer protein (Acro Biosystems) (UniProt P07766 23-126; P04234 22-105); test: SPR (Biacore 8K), CD3e-CD3d immobilized on CM5 chip, bispecific as analyte, 1:1 model
Protocol: (§1) Binding affinities of first-generation bispecific antibodies to recombinant CD3e-CD3d heterodimer protein (Acro Biosystems) or LILRB4 recombinant protein (Sino Biological) were measured by surface plasmon resonance using a Biacore 8K instrument. Briefly, CD3e-CD3d or LILRB4 protein was immobilized on a CM5 chip with EDC and NHS according to standard protocols. […] The chip was regenerated using 10 mM glycine pH 1.5 as the regeneration buffer. The sensorgrams for reference channel Fc1 and buffer channel were subtracted from the test sensorgrams and the experimental data was fitted by 1:1 binding model.

[3] = biological target: T2, recombinant human LILRB4 protein (Sino Biological, cat #16742-H08H) (human, UniProt Q8NHJ6 22-259); test: SPR (Biacore 8K), LILRB4 immobilized on CM5 chip, bispecific as analyte, 1:1 model
T2 construct: extracellular domain; also called LILRB4 recombinant protein (Sino Biological); Human LILRB4 ECD-his; not shown: his tag
Protocol: as §1

[4] = biological target: T3, flag-tagged cynomolgus monkey LILRB4 expressed on CHO-K1 cells (cynomolgus monkey); test: FACS, CHO-stable cells expressing cyno LILRB4
T3 construct: whole, on cells; also called cyno LILRB4

[5] = biological target: T1, human LILRB4 expressed on cells; test: FACS, CHO-stable cells expressing human LILRB4

Sequence of recombinant CD3e-CD3d heterodimer protein (Acro Biosystems) (P07766 23-126 limits assumed, chain 1 of 2): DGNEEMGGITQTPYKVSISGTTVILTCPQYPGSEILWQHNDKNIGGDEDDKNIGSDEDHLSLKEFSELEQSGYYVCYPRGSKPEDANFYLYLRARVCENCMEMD
Sequence of recombinant CD3e-CD3d heterodimer protein (Acro Biosystems) (P04234 22-105 limits assumed, chain 2 of 2): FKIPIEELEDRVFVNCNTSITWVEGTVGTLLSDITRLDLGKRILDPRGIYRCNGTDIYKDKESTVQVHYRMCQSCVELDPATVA

Binder | Monocyte (max %), Donor 1 [1] | Monocyte (max %), Donor 2 [1] | Monocyte (max %), Donor 3 [1] | Monocyte killing EC50, Donor 1 [1] | Monocyte killing EC50, Donor 2 [1] | Monocyte killing EC50, Donor 3 [1] | T-cell cytotoxicity, THP-1 (max %) [1] | T-cell cytotoxicity, THP-1 EC50 (estimated) [1] | Kd [2] | Kd [3] | EC50 [4] | EC50 [5] | T-cell cytotoxicity, THP-1 EC50 [1]
B1 | 55% | 59% | 54.5% | 1.3 pM | 0.32 pM | 2.9 pM | 98.3% | < 0.01 pM | 26800 pM | 260 pM |  |  | 
B2 |  |  |  |  |  |  |  |  |  |  | 1230 pM | 463 pM | 
B3 |  |  |  |  |  |  |  |  |  |  | 933 pM | 402 pM | 
B4 |  |  |  |  |  |  |  |  |  |  | 974 pM | 455 pM | 
B5 |  |  |  |  |  |  |  |  |  |  | 989 pM | 480 pM | 
B6 | 39% | 30% | 0% |  | 3.4 pM |  | 96.4% |  | 42100 pM | 230 pM |  |  | 0.43 pM
B7 | 45% | 0% | 42% | 0.19 pM |  | 0.084 pM | 98.7% | < 0.01 pM | 47000 pM | 290 pM |  |  | 
